Experimental data reported in patent US20120184713.

Tests used:
[1] = target: T1, DMP1:FLAG (FLAG epitope-tagged mouse dentin matrix protein 1, affinity purified), O55188
T1 chain: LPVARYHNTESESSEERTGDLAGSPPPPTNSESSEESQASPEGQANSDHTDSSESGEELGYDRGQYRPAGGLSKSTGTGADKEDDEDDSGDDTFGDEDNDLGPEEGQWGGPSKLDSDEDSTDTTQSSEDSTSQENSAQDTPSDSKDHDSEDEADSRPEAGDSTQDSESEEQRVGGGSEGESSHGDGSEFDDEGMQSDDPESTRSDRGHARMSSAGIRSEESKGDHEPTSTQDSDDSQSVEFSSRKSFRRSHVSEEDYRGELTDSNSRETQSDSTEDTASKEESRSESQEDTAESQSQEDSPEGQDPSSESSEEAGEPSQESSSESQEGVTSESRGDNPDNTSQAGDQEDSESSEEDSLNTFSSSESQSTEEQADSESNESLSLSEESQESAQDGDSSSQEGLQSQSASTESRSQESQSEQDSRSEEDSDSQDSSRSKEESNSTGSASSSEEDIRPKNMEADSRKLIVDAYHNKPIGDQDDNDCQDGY

[2] = target: T2, Peptide3, OPN-ASARM derivative with the three G-CK consensus Ser residues changed to Ala
T2 chain: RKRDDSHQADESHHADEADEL

[3] = target: T3, BSP:FLAG (FLAG epitope-tagged mouse bone sialoprotein, affinity purified), Q61711
T3 chain: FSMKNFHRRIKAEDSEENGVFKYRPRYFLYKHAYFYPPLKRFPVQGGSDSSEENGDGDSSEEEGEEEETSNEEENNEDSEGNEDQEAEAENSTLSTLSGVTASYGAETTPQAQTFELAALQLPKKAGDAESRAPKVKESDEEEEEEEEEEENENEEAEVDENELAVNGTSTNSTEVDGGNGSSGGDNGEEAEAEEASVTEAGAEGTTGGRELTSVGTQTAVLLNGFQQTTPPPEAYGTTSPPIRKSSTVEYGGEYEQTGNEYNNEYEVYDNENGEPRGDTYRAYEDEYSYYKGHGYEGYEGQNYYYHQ

[4] = target: T4, Fat2-3:FLAG (affinity-purified cadherin domains of Drosophila Fat), P33450
T4 chain: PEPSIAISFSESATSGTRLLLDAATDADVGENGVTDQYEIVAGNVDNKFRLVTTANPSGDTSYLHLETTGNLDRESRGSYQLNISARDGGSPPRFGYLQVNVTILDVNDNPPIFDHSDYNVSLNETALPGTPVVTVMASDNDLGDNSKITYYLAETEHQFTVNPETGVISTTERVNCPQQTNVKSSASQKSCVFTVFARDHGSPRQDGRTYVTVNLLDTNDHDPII

[5] = target: T5, Peptide4, OPN-ASARM derivative with the other two Ser residues changed to Ala
T5 chain: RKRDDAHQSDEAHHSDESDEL

[6] = target: OPN:FLAG (FLAG epitope-tagged mouse osteopontin, affinity purified), P10923
[7] = target: T6, Peptide2, OPN-ASARM derivative with all five Ser residues replaced by Ala
T6 chain: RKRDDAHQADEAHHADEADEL

[8] = target: dephosphorylated alpha-Casein (Sigma)
[9] = target: Myelin Basic Protein (NEB)
[10] = target: T7, Peptide1, OPN-ASARM peptide (human Osteopontin 115Asp to 132Leu with N-terminal Arg-Lys-Arg)
T7 chain: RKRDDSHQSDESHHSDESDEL

Chain of OPN:FLAG (FLAG epitope-tagged mouse osteopontin, affinity purified), P10923 (P10923 17-294): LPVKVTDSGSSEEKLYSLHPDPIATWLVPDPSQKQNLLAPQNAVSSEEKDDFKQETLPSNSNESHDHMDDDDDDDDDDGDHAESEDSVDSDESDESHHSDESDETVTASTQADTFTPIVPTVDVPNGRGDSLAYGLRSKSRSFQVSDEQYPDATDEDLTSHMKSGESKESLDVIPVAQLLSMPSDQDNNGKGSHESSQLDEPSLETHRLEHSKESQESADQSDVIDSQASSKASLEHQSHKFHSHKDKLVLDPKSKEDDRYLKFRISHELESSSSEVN

B1: FAM20C:V5 (V5-epitope tagged mouse FAM20C, affinity purified from conditioned medium of HEK293T cells) (protein)
chain: DFSSDPASNLTSHSLEKLPSAAEPVDHAPRGQEPRSPPPRDPAHRPLLRDPGPRPRVPPPGPSGDGSLLAKLFEHPLYQGAVPPLTEDDVLFNVNSDIRFNPKAAENPDWPHEGAEGAEFLPTGEAAVNLYPNWLKFHIGINRYELYSRHNPAIDALLRDLGSQKITSVAMKSGGTQLKLIMTFQNYGQALFKPMKQTREQETPPDFFYFSDYERHNAEIAAFHLDRILDFRRVPPVAGRMINMTKEIRDVTRDKKLWRTFFVSPANNICFYGECSYYCSTEHALCGRPDQIEGSLAAFLPDLSLAKRKTWRNPWRRSYHKRKKAEWEVDPDYCEEVKQTPPYDSGHRILDIMDMTVFDFLMGNMDRHHYETFEKFGNETFIIHLDNGRGFGKYSHDELSILAPLHQCCRIRRSTYLRLQLLAKEEHKLSLLMAESLQHDKVAPVLYQLHLEALDRRLRIVLQAVRDCVEKDGLSSVVEDDLATEHRASTER
in vitro kinase assay (32P transfer) [1]: Transfer of ^32P onto OPN, BSP, and DMP1 was observed in the presence of FAM20C:V5 | in vitro kinase assay with peptide substrate [2]: A peptide in which only the three G-CK concensus sites were changed to Ala (OPN-ASARM^3S-A) was phosphorylated much less effectively | in vitro kinase assay (32P transfer) [3]: Transfer of ^32P onto OPN, BSP, and DMP1 was observed in the presence of FAM20C:V5 | in vitro kinase assay (32P transfer) [4]: neither Myelin basic protein ... nor cadherin domains of Fat that are substrates for Fj, were detectably phosphorylated by FAM20C | in vitro kinase assay with peptide substrate [5]: a derivative in which the other two Ser residues were changed to Ala (OPN-ASARM^2S-A) was still efficiently phosphorylated by FAM20C | in vitro kinase assay (32P transfer) [6]: Transfer of ^32P onto OPN, BSP, and DMP1 was observed in the presence of FAM20C:V5 | in vitro kinase assay with peptide substrate [7]: a derivative with all five Ser residues replaced by Ala (OPN-ASARM^5S-A) was not phosphorylated | Michaelis constant (Km), in vitro kinase assay [8]: a Michaelis constant (Km) of FAM20C for Casein of 1.5 µM | in vitro kinase assay (32P transfer) [8]: Dephosphorylated Casein was phosphorylated by purified FAM20C in vitro | in vitro kinase assay (32P transfer) [9]: neither Myelin basic protein ... nor cadherin domains of Fat ... were detectably phosphorylated by FAM20C | in vitro kinase assay with peptide substrate [10]: In vitro kinase reactions confirmed that OPN-ASARM is a FAM20C substrate
